Measurements as given in the RNAGym collection of RNA variant scans (doi:10.1101/gr.219683.116).

B1: mRNA-splicing (parent)
chain: AGUUGCUGCUGGGAGCUCCAGCACAGUGAAAUGGACAGAAGGGCAGAGCAA

Variants of: B1
Experiment: exon inclusion enrichment index; higher = more inclusion; WT1 exon 5 minigene, HEK293

Variant | exon inclusion enrichment index
G5A U7C G8A U10C G38A A39C | 1.95
G5A U7C G8A U10C G38A A39G | 2.26
G5A U7C G8A U10C G38A A39U | 0.204
G5A U7C G8A U10C G13C A14G | 1.71
G5A U7C G8A U10C G13C A14U | 1.45
G5A U7C G8A U10C G13C A14C | 1.19
G5C C6A U7A G8U C9A | 0.415
G5A U7C G8A U10C G21A C22G | 2.31
G5A U7C G8A U10C G21A C22U | 1.26
G5A U7C G8A U10C G21A C22A | 1.09
G5A U7C G8A U10C G12A G13U | 0.132
G5A U7C G8A U10C G12A G13C | 0.711
G5A U7C G8A U10C G12A G13A | 0.689
G5C C6A U7C G8A C9U U10A | 0.0185
G5C C6A U7C G8A C9U U10G | 0.525
G5C C6A U7C G8A C9U U10C | 2.03
G5A U7C G8A U10C G33U G34A | 0.441
G5A U7C G8A U10C G33U G34U | 0.351
G5A U7C G8A U10C G33U G34C | 0.815
G5A U7C G8C C9A U10C | 1.56
G5C C6A U7A U10C | 3.35

Variant | exon inclusion enrichment index
G5C C6A U7A U10A | 0.407
G5A U7C G8A U10C G34A A35G | 1.09
G5A U7C G8A U10C G34A A35C | 1.83
G5A U7C G8A U10C G34A A35U | 0.813
G5A U7C G8A U10C C24A A25U | 2.06
G5A U7C G8A U10C C24A A25G | 2.4
G5A U7C G8A U10C C24A A25C | 3.6
G5A U7C G8A U10C C44G A45G | 0.315
G5A U7C G8A U10C C44G A45U | 1.92
G5A U7C G8A U10C C44G A45C | 3.34
G5A U7C G8A U10C G41A G42U | 1.8
G5A U7C G8A U10C G41A G42A | 1.99
G5A U7C G8A U10C G41A G42C | 2.53
G5A U7C G8A U10C G43C C44G | 4.39
G5A U7C G8A U10C G43C C44A | 3.61
G5A U7C G8A U10C G43C C44U | 1.59
G5C C6A U7C C9G U10A | 1.72
G5A U7G G8U C9A | 0.583
G5A U7C G8A U10C G42U G43C | 1.5
G5A U7C G8A U10C G42U G43U | 3.03
G5A U7C G8A U10C G42U G43A | 3.16

Variant | exon inclusion enrichment index
G5A U7C G8A U10C U32C | 3.88
G5A U7C G8A U10C U32G | 0.244
G5A U7C G8A U10C U32A | 1.87
G5A U7C G8A U10C U27C G28A | 2.31
G5A U7C G8A U10C U27C G28U | 1.74
G5A U7C G8A U10C U27C G28C | 2.7
G5A U7C G8A U10C U17G C18G | 1.96
G5A U7C G8A U10C U17G C18A | 2.15
G5A U7C G8A U10C U17G C18U | 1.66
G5A U7C G8A U10C G38A | 1.25
G5A U7C G8A U10C G38U | 0.919
G5A U7C G8A U10C G38C | 1.83
G5C C6A | 0.0337
G5A U7C G8A U10C G28U | 0.556
G5A U7C G8A U10C G28A | 0.733
G5A U7C G8A U10C G28C | 1.68
G5C C6A U7C G8A G11C | 1.01
G5C C6A U7C G8A G11A | 0.126
G5C C6A U7C G8A G11U | 0.768
G5A U7C G8C U10C | 1.39
G5A U7C G8A U10C C44U A45U | 1.51

Variant | exon inclusion enrichment index
G5A U7C G8A U10C C44U A45G | 1.53
G5A U7C G8A U10C C44U A45C | 3.16
G5A U7C G8A U10C G43U | 1.89
G5A U7C G8A U10C G43C | 2.52
G5A U7C G8A U10C G43A | 4.17
G5A U7C G8A U10C G38C A39G | 2.15
G5A U7C G8A U10C G38C A39U | 0.229
G5A U7C G8A U10C G38C A39C | 2.25
G5A U7C G8A U10C C36A A37U | 1.07
G5A U7C G8A U10C C36A A37G | 1.06
G5A U7C G8A U10C C36A A37C | 2.61
G5A U7C G8A U10C G46U A47C | 2.94
G5A U7C G8A U10C G46U A47U | 2.48
G5A U7C G8A U10C G46U A47G | 1.85
G5A U7C G8U C9A | 0.658
G5A U7G C9A | 1.5
G5C C6A U7C C9U U10A | 0.0237
G5A U7C G8A U10C C24U | 0.763
G5A U7C G8A U10C C24A | 2.26
G5A U7C G8A U10C C24G | 2.53
G5C C6A G8U U10A | 0.0451
